Here are results for 2 molecules from paper PMC12528385 (Nature Communications, 2025).

In this experiment the target is human insulin receptor, B isoform (exon 11+), wild type (human, UniProt P06213). The experiment in a line: flow cytometry on cells. (In general: Flow cytometry measures light scatter and fluorescence of single cells or particles in a stream.)

B1: monoclonal antibody 83-7 against the human insulin receptor (antibody, V domains shown)
VH: QVQLKESGPGLVAPSQSLSITCTVSGFPLTAYGVNWVRQPPGKGLEWLGMIWGDGNTDYNSALKSRLSISKDNSKSQVFLKMNSLQTDDTARYYCARDPYGSKPMDYWGQGTSVTVSS
VL: DIVMSQSPSSLVVSVGEKVTMSCKSSQSLLYSSNQKNFLAWYQQKPGQSPKLLIYWASTRESGVPDRFTGSGSGTDFTLTISSVKAEDLAVYYCQQYFRYRTFGGGTKLEIK
For B1, the binding result is on record as “binds”.

B2: monoclonal antibody 83-14 against the human insulin receptor (antibody, V domains shown)
VH: QVQLQQSGPELVKPGALVKISCKASGYTFTNYDIHWVKQRPGQGLEWIGWIYPGDGSTKYNEKFKGKATLTADKSSSTAYMHLSSLTSEKSAVYFCAREWAYWGQGTLVTVSA
VL: DIQMTQSPSSLSASLGERVSLTCRASQDIGGNLYWLQQGPDGTIKRLIYATSSLDSGVPKRFSGSRSGSDYSLTISSLESEDFVDYYCLQYSSSPWTFGGGTKLEIK
For B2, the binding result is “binds”.
